B1: PduP encapsulation peptide with its native linker fused to the N-terminus of mNeonGreen [Salmonella enterica] / itself (parent)
chain: MNTSELETLIRTILSEQLTTPAQTPVQPQGKGIFQS

Columns and labels:
itself [1] = variants of: B1; experiment: turbidity measurement (self-assembly / condensation), NaCl titration; conditions: with itself; value read at the lowest NaCl point (est. ~12-15 mM NaCl); parent: 0.45; read off a plot
itself [2] = variants of: B1; experiment: turbidity measurement (self-assembly / condensation), protein concentration titration; conditions: with itself; value read at the third-highest protein concentration point (est. ~45 µM); parent: 0.45; read off a plot

chain 1 E7D
response (itself [1]): 0.37 | response (itself [2]): 0.21

chain 1 R11A
response (itself [1]): 0.26 | response (itself [2]): 0.21

chain 1 R11K
response (itself [1]): 0.46 | response (itself [2]): 0.39

chain 1 I10S
response (itself [1]): 0.17

chain 1 E7R R11E
response (itself [1]): 0.51 | response (itself [2]): 0.5

— article PMC12339742
